Key:
[1] = target: ALFA-Pb displayed on E. coli cells (AIDA autodisplay system), photocaged, not irradiated; experiment: flow cytometry on cells; E. coli cells displaying the nanobody (AIDA autodisplay system), not irradiated, mixed with a dilution series of fluorescent sfGFP-ALFA-tag (3)
sfGFP-ALFA-tag (3) [2] = experiment: MST; 10 nM sfGFP-ALFA-tag (3) with a dilution series of photobody 1, before light activation
sfGFP-ALFA-tag (3) [3] = target: T1, sfGFP-ALFA-tag (3) (synthetic construct …); experiment: flow cytometry on cells; E. coli cells displaying the ALFA-Pb irradiated in 100 uL PBS (OD600=1; 365 nm, 530 mW; 5 cm distance), then different concentrations of sfGFP-ALFA-tag (3) added; settings: one partner purified
T1 construct: ALFA-tag, laboratory-designed amphiphilic peptide of 13 amino acids; sfGFP is the fluorescent marker read in MST and flow cytometry; also called protein 3; fusion construct sfGFP-ALFA-tag
T1 chain: SRLEEELRRRLTE

sfGFP-ALFA-tag (3) [4] = target: T1, sfGFP-ALFA-tag (3); experiment: flow cytometry on cells; E. coli cells displaying the nanobody (AIDA autodisplay system), not irradiated, mixed with a dilution series of fluorescent sfGFP-ALFA-tag (3); settings: one partner purified

## sfGFP-ALFA-tag (3)
[1]
  Kd: 3200 nM

## ALFA-tag photobody (ALFA-Pb) 1, Tyr42ONBY, photocaged (VHH)
sfGFP-ALFA-tag (3) [2]
  Kd: 7900 nM

B1: decaged ALFA-Pb displayed on E. coli cells (after irradiation at 365 nm) (VHH)
VHH: EVQLQESGGGLVQPGGSLRLSCTASGVTISALNAMAMGWYRQAPGERRVMVAAVSERGNAMYRESVQGRFTVTRDFTNKMVSLQMDNLKPEDTAVYYCHVLEDRVDSFHDYWGQGTQVTVSS
notes: Made from m2 by UV light
sfGFP-ALFA-tag (3) [3]
  Kd: 0.183 ± 0.006 nM

B2: ALFA-Nb (wild type) displayed on E. coli cells, unirradiated control (VHH)
VHH: EVQLQESGGGLVQPGGSLRLSCTASGVTISALNAMAMGWYRQAPGERRVMVAAVSERGNAMYRESVQGRFTVTRDFTNKMVSLQMDNLKPEDTAVYYCHVLEDRVDSFHDYWGQGTQVTVSS
notes: ALFA-tag nanobody (ALFA-Nb), wild type; also called unirradiated ALFA-Nb control; ALFA-tag nanobody
sfGFP-ALFA-tag (3) [4]
  Kd: 0.346 ± 0.005 nM
